Kd and stoichiometry N data for four molecules are collected here from paper PMC10126205, “A comparative analysis of lipoprotein transport proteins: LolA and LolB from Vibrio cholerae and LolA from Porphyromonas gingivalis” (Scientific Reports, 2023).

Assay [1] addresses LolB from Vibrio cholerae (Vibrio cholerae). Put plainly: ITC; LolA injected on LolB-VC (750 µM and 100 µM); MicroCal auto-iTC200, 25 °C, 20 mM HEPES pH 7.5, 150 mM NaCl; heats of LolA on buffer subtracted; single site binding model; no lipoprotein present.
The target in a further assay is T1, LolA (LolA-PG) (Porphyromonas gingivalis, UniProt B2RI10).
T1 construct: gene PGN_0486; LolA residues 27–215
Nature of the assay: isothermal titration calorimetry (single-site model, […] °C). The assay is classed as binding. (In general: Isothermal titration calorimetry measures the heat released or taken up as one component is titrated into another.)

The target in a further assay is LolB (Escherichia coli) (UniProt P61320). The conditions noted are these: cited from earlier work.
The target of assay [2] is LolB from Vibrio cholerae (Vibrio cholerae (strain A1552)). Put plainly: ITC; MicroCal auto-iTC200, 25 °C, 20 mM HEPES pH 7.5, 150 mM NaCl; LolA injected onto LolB, 20 injections, stirring 300 rpm; single site binding model; no lipoprotein present.

Values joined by “and” are separate entries in the source; they are usually repeats but may differ in a detail not shown here. Identical values can stand only once.

Take “LolA from Vibrio cholerae (from UniProt A5F2G9 17-198) (natural protein)”: in assay [1], the Kd (usually the equilibrium constant for the complex coming apart) was 27.5 µM and 32.9 µM; the stoichiometry N (as a rule, the number of molecules, sites or subunits per partner or assembly) is 0.72 and 0.83 and 0.78. Regarding `N=C(N)SCc1ccc(Cl)c(Cl)c1` [A22], at LolA (LolA-PG), the Kd was found to be 681 ± 44.1 µM. Regarding LolA (from UniProt P61316), in the assay with LolB (Escherichia coli), the Kd is 30.6 µM.

B1: LolA from Vibrio cholerae (natural protein)
chain: APKDTLSERLAMSEGFSATFNQQVLSPEGKVILTGNGKVDIARPSLFRWETETPDENLLVSDGTTLWHFDPFVEQVTLYRAEEALEQTPFVLLTRNKASDWDAYHVEEKGDVFTLTPTALDSNQGRFQITISEKGVVQGFKVIEQDGQQSEFTFSKVKQQKPNASVFNYKVPKGVEVDDQRN
Molecule B1 showed a Kd in assay [2] of 30.2 µM.
